Assay results from the Human Domainome abundance scans (Beltran et al. 2025).
± gives the uncertainty stated by the source.

B1: MEF2-activating motif and SAP domain-containing transcriptional regulator, residues 170 to 204; numbered along this chain, Q6ZN01 (parent)
chain: LKLEELTVSELRQQLRLRGLPVSGTKSMLLERMRG

Variants of: B1
Assay: abundance fitness (aPCA) (normalised: wild type 0, dead -1); higher = more abundant; growth selection in yeast, the domain comes from the species named
Conditions: Homo sapiens

Abundance fitness of substitutions, site by site:
G35: A -0.117 ± 0.13 | W -0.416 ± 0.13 | R -0.436 ± 0.11 | F -0.295 ± 0.11 | S -0.262 ± 0.36 | N -0.161 ± 0.28 | L -0.074 ± 0.081
